In the RNAGym collection of RNA variant scans (doi:10.1073/pnas.2313332121):

B1: TPR t1 (parent)
chain: GACCAAUCUGCCCUCAGAGCUCGAGAACAUCUUCGGAUGCAGAGGAGGCAGGCUUCGGUGGCGCGAUAGCGCCAACGUCCUCAACCUCCAAUGCAUCCCACCACAUGAUGAUGCCUGAAGAGCCUUGGUUUUUUG

Variants of: B1
Assay: polymerase ribozyme fitness, log enrichment relative to wild type (log ratio); higher = more active; in vitro selection for triplet polymerase activity
Summary of the method: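 Mutant libraries for each subunit of a heterodimeric triplet polymerase ribozyme were made by PCR and then transcribed. Each library underwent one round of in vitro selection in triplicate: annealing with a biotinylated primer, the partner subunit and triplets, frozen incubation at −7 °C, gel excision of extended constructs, streptavidin-bead capture and RT-PCR. Input and output libraries were Illumina-sequenced, and only genotypes with ≥10 input reads and ≥1 read per output were kept. Fitness is the logarithm, base 2, of genotype enrichment over wild-type enrichment, computed from inverse-variance-weighted replicate averages.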

Row | Variant | polymerase ribozyme fitness (log ratio)
1 | C53G U126A | -2.29
2 | C53U | -0.1
3 | C53U A74G C98U | -1.16
4 | C53U A90G A95G | 0.749
5 | C53U A90U | -0.929
6 | C53U A91C U92A G122A | -4.02
7 | C53U A91U C123A | -1.7
8 | C53U A121U | 0.893
9 | C53U C56U | -0.207
10 | C53U C62U A111U A118U G135A | -3.23
11 | C53U C64U | -0.276
12 | C53U C70A | -1.49
13 | C53U C70G | -4.36
14 | C53U C70U A74G G113C | -4.41
15 | C53U C72U C79A C85U C88U | -2.53
16 | C53U C72U G77U C82G A111C | -1.23
17 | C53U C73G | -2.05
18 | C53U C73G G113C | -4.51
19 | C53U C80A | -4.94
20 | C53U C85U G127C | -2.36
21 | C53U C86G | -0.977
22 | C53U C94A A121C | 0.891
23 | C53U C94A U129C | -1.99
24 | C53U C98U | -1.46

Row | Variant | polymerase ribozyme fitness (log ratio)
25 | C53U C99G A119G | -7.41
26 | C53U C102U | -2.44
27 | C53U C104A | -1.8
28 | C53U G57A G60C G61A C115U | -4.03
29 | C53U G60C U87A | -1.09
30 | C53U G60U | 0.63
31 | C53U G60U A121C | 1.26
32 | C53U G60U C101U A103C | -5.14
33 | C53U G61U C114U | -2.37
34 | C53U G61U U78C | 0.151
35 | C53U G63C | -2.11
36 | C53U G63C C98G | -6.12
37 | C53U G69A A84C | -3.13
38 | C53U G69U C73U | 0.0642
39 | C53U G71A C73A G77C C80U | -6.09
40 | C53U G71A C101G U130A | -3.93
41 | C53U G71A G93A | -1.43
42 | C53U G71U G127A | -1.14
43 | C53U G77U U132A | -0.78
44 | C53U G93A | -0.887
45 | C53U U54G C56U U129C U133G | -0.985
46 | C53U U55A | -0.075
47 | C53U U59A A84U U126C | -2.21
48 | C53U U59C C89A C104U G117C G128U | -6.6

Row | Variant | polymerase ribozyme fitness (log ratio)
49 | C53U U59G | -0.253
50 | C53U U67G C124G | -7.17
51 | C53U U78A A103U A121C U132C | -4.38
52 | C53U U96C | -0.173
53 | C53U U112A | 0.78
54 | U54A A68G G71U C80G C102G G113U U125A | -6.12
55 | U54A A119G | 0.648
56 | U54A C56G G61A | -0.683
57 | U54A C70U C94A | -1.72
58 | U54A C72U C102G U112G | -5.88
59 | U54A C73U A121U U130A | 2.07
60 | U54A C76U | -0.995
61 | U54A C85U C97U | -1.5
62 | U54A C86U C124U | 1.14
63 | U54A C88G C89U C115A | -1.42
64 | U54A C89U U96C G127A | -1.97
65 | U54A C94A | -1.16
66 | U54A C115U U131C G135C | -1.35
67 | U54A G57C A90G C114U U132A | -2.18
68 | U54A G69U G128C U130A U132A | -2.67
69 | U54A G71U U126G | -2.06
70 | U54A U133G | -0.274
71 | U54C A84G C88A C98U | -1.69
72 | U54C C56A C64A C85G G117A | -7.73

Row | Variant | polymerase ribozyme fitness (log ratio)
73 | U54C C56U C82A U96A | -1.95
74 | U54C C72U C89U A111C | -0.0742
75 | U54C C76U | -0.00868
76 | U54C C86G U112G G120C | -1.16
77 | U54C C115A G122A C123A U131A | -1.4
78 | U54C C115U G127C | -1.97
79 | U54C G58A G69C A84U | -1.08
80 | U54C G60U G69U U133G | -2.67
81 | U54C G61C | -2.14
82 | U54C U78G G117U | -3.85
83 | U54C U87A A95U U130A | -2.56
84 | U54C U106A C124U | 2.23
85 | U54C U109A G120C | -5.52
86 | U54C U116A U131C | -3.16
87 | U54G A95C U133A | -1.48
88 | U54G A103U | -4.6
89 | U54G C56G C72A G93A | -4.53
90 | U54G C62G | -5.55
91 | U54G C80A C88A | -4.43
92 | U54G C85U U116G | -3.02
93 | U54G C101U U106A U116G | -3.87
94 | U54G C114A | -1.69
95 | U54G G57C | -1.44
96 | U54G G61A C80A G120U | -5.8

Row | Variant | polymerase ribozyme fitness (log ratio)
97 | U54G G63A G69U U78G C102A U106G G120C | -6.62
98 | U54G G71U A74U G113C A121U | -7.2
99 | U54G G107U | -5.37
100 | U54G U55A G93C C115G | -5.45
101 | U55A A83G | -0.95
102 | U55A A111U | -2.8
103 | U55A C73U C86G C99U | -4.02
104 | U55A C79G | -0.669
105 | U55A C79U C97U C115U G127C | -3.52
106 | U55A C85U | -1.1
107 | U55A G57A G61A G77A U87A A100C | -1.72
108 | U55A G63C C72U G77C C104A | -5.29
109 | U55A G71U C102U A121G U132A | 0.31
110 | U55A G77U C115U U125A | -1.02
111 | U55A U87A G122A | -0.825
112 | U55C A90U | -1.58
113 | U55C C56A A84C A111G U129A | -2.42
114 | U55C C56A A90G C94G G110C U116A A121G | -6.03
115 | U55C C70U C85A | -2.03
116 | U55C C70U C88G | -0.976
117 | U55C C72A U78C C79U A121G | 2.46
118 | U55C C72G A83G U126A | -2.13
119 | U55C C82A C124G | 1.37
120 | U55C G58A G122A | -0.971

Row | Variant | polymerase ribozyme fitness (log ratio)
121 | U55C G60A C94A G113U | -4.46
122 | U55C U130G | -1.43
123 | U55G A66U | -0.936
124 | U55G C56A | -0.837
125 | U55G C56G | -1.53
126 | U55G C56U A95U | -1.91
127 | U55G C62A C88G | -2.24
128 | U55G C62G C123U | -0.0735
129 | U55G C70G A100C | -3.29
130 | U55G C89G | -1.51
131 | U55G C115U | -0.797
132 | U55G G58C C79A | -3.4
133 | U55G G60U A103U | -5.31
134 | U55G G61U C114U | -1.66
135 | U55G G61U C123A | 1.22
136 | U55G G63A U81C | -3.9
137 | U55G G69A C73A | -3.04
138 | U55G G93A G117U | -3.04
139 | U55G U132A | -0.283
140 | C56A A66G A75G | -0.927
141 | C56A A83G G135U | -2.3
142 | C56A A83U | -1.62
143 | C56A A83U C85U C99U | -3.58
144 | C56A A90U | -1.48

Row | Variant | polymerase ribozyme fitness (log ratio)
145 | C56A A100G C102U U112C G127C | -2.2
146 | C56A A119U | -1.36
147 | C56A C62A C79A | -6.19
148 | C56A C62U C114U | -2.3
149 | C56A C64G | -5.92
150 | C56A C70G | -3.6
151 | C56A C70G C124A G127A | -2.78
152 | C56A C70U | -0.609
153 | C56A C72G | -0.848
154 | C56A C72U G93U | -1.63
155 | C56A C72U G110A G122U | -2.87
156 | C56A C76A C88A C115U | -3.94
157 | C56A C76A G120U | -1.15
158 | C56A C79A | -1.77
159 | C56A C80A U116G | -4.93
160 | C56A C80G C86U | -3.12
161 | C56A C80U A111U | -4
162 | C56A C88U C101U U106G C123A | -1.58
163 | C56A C88U C124A U133C | 2.43
164 | C56A C89U | -1
165 | C56A C89U C102U G113U | -6.7
166 | C56A C99U | -2.82
167 | C56A C101G | -1.76
